{
  "source": "patent US20080009025A1",
  "about": "“PROTEIN KINASE REGULATION” (priority 1999, published 2008)",
  "key": {"[1]": {"biological_target": "T1, Myc-PDK1 (Homo sapiens, UniProt O15530)", "T1 construct": "expressed in transfected cells; host or cells: 293 cells", "T1 sequence (O15530 1-556)": "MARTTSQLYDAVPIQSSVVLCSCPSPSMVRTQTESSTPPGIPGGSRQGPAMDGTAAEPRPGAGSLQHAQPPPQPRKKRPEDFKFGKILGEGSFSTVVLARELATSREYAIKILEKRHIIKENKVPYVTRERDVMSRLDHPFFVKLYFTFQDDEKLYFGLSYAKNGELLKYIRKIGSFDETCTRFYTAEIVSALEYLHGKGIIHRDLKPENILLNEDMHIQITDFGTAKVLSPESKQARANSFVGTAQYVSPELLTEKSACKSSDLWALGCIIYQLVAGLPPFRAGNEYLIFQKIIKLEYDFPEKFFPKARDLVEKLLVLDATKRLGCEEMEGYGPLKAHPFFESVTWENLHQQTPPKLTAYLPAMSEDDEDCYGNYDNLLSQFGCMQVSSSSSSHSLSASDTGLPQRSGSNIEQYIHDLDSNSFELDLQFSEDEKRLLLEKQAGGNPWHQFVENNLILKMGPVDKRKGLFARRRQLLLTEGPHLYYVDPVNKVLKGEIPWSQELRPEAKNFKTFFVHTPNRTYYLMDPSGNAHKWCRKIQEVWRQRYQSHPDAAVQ", "test": "Glutathione-Sepharose pull-down of Myc-PDK1 with GST-PIF from 293 cells", "format": "binding", "protocol": "FIG. 9. Effect of mutation of conserved residues in the PIF-binding pocket of PDK1 on the ability to interact with PIF. 293 cells were transiently transfected with DNA constructs expressing GST-PIF and either wild type Myc-PDK1 or the indicated mutants of PDK1. 36 h post transfection the cells were lysed and GST-PIF purified by affinity chromatography on glutathione-Sepharose beads. 2 μg of each protein was electrophoresed on a 10% SDS/polyacrylamide gel and either stained with Coomassie blue (A and E) or immunoblotted using an anti Myc antibody to detect Myc-PDK1 (B and F). To establish that the wild type PDK1 and mutant proteins were expressed at a similar level, 10 μg of total cell lysate was electrophoresed on a 10% SDS/polyacrylamide gel and immunoblotted using anti-Myc antibodies (C and G). Duplicates of each condition are shown. Similar results were obtained in 3 to 5 separate experiments. […]\nA pEBG2T plasmid encoding GST fused to the last 77 residues of PRK2 termed GST-PIF (10 μg) and pCMV5 plasmid expressing Myc-PDK1 wild type or the indicated mutants of PDK1 (10 μg), were co-transfected into a 10 cm diameter dish of 293 cells using a modified calcium phosphate method. […] The gels were either stained with Coomassie blue, or analysed by immunoblotting with anti Myc antibodies."}, "[2]": {"biological_target": "T2, PDK1-wt (Homo sapiens, UniProt O15530)", "T2 construct": "made in house; host or cells: human embryonic kidney 293 cells", "T2 sequence (O15530 1-556)": "T1 sequence (O15530 1-556)", "test": "Phosphorylation of AGC kinase substrates by PDK1 (32P, PhosphoImager)", "format": "biochemical", "details": "hydrophobic motif Phe to Ala mutants", "protocol": "Phosphorylation of AGC kinase substrates by PDK1. The phosphorylation of PDK1 substrates was performed in a final volume of 20 μl in a buffer containing 50 mM Tris-HCl pH 7.5, 0.1% (by vol) 2-mercaptoethanol, 10 mM magnesium chloride, 100 μM [γ-^32P]ATP (˜1000 c.p.m./pmol), 0.5 μM microcystin-LR, 0.6 μM AGC kinase substrate and 0.6 to 30 nM wild type PDK1 or the indicated mutant of PDK1.\nRelative phosphorylation of PDK1 substrates. PDK1 substrates were phosphorylated in vitro, subjected to SDS-PAGE, and radioactivity associated with the bands measured using a Phospho-Imager and known amounts of ATP as standard. The phosphorylation rate of PKB[S473D] in the presence of PtdIns (3,4,5)P3 was 2.6 mol/mol PDK1/min and was taken as the relative value of 100. Average values from a representative experiment performed in duplicates are shown."}},
  "note": "Where a SMILES comes first, the peptide text is derived from it.",
  "data": [
    {"compound": "GST-PIF: glutathione S-transferase fused to the last 77 residues of PRK2 (PIF)", "values": [
      {"measurement": "complex with wild type PDK1", "setting": "[1]", "result": "a complex was readily observed"}
    ]},
    {"compound": "CC[C@H](C)[C@H](NC(=O)[C@H](Cc1ccc(O)cc1)NC(=O)[C@H](CC(=O)O)NC(=O)[C@H](Cc1ccccc1)NC(=O)[C@H](CC(=O)O)NC(=O)[C@H](CCCNC(=N)N)NC(=O)[C@H](Cc1ccccc1)NC(=O)[C@H](CCSC)NC(=O)[C@H](CCC(=O)O)NC(=O)[C@H](CCC(N)=O)NC(=O)[C@H](CCC(=O)O)NC(=O)[C@H](CCC(=O)O)NC(=O)[C@H](CCC(=O)O)NC(=O)[C@H](CO)NC(=O)[C@H](CC(C)C)NC(=O)[C@@H](NC(=O)[C@H](CCCNC(=N)N)NC(=O)[C@@H]1CCCN1C(=O)[C@H](CCC(=O)O)NC(=O)[C@@H](N)CCCNC(=N)N)[C@@H](C)CC)C(=O)N[C@@H](C)C(=O)N[C@@H](CC(=O)O)C(=O)N[C@@H](Cc1c[nH]c2ccccc12)C(=O)N[C@@H](CS)C(=O)O", "note": "[PIFtide] (H-REPRILSEEEQEMFRDFDYIADWC-OH; N-terminus and C-terminus assumed)", "values": [
      {"measurement": "basal rate at which PDK1 phosphorylated S6K1[F411A], SGK1[F421A] and ΔPH-PKBα[F472A]", "setting": "[2]", "result": "not inhibited"}
    ]}
  ]
}
